Here are results for 33 sequences from the supplement of paper PMC9170038.

This data set relates to MS2 coat protein. Kind of data set: apparent KD of MS2 coat protein; designed switch direction (-1 OFF switch, 1 ON switch): -1; higher = weaker reporter binding. In short, it runs like this:
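An oligonucleotide input, 200 uM small-molecule ligand, or no input was present during titration of SNAP-549-labelled MS2 coat protein, which was doubled from 0.7 or 1.5 nM to 3 µM. Designed RNA switches had been transcribed on Illumina chips by stalled E. coli RNA polymerase. Apparent KD per design is the median over clusters of curves fitted to normalised cluster fluorescence.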

[1] abbreviates: input ligand: microRNA oligo, concentration not stated.
Where [2] appears, read: Eterna round: R95, input ligand: microRNA oligo, concentration not stated.
Where [3] appears, read: Eterna round: R95, input ligand: FMN 200 uM.
The mark [4] stands for this setting: Eterna round: R95, input ligand: none.

In the case of “CAACGAAGUCGAGGAUAUGCCCACUCCGCAGCGGCAGAAGGCGACAUGAGGAUCACCCAUGUAACGGCUAACGGGAUGGGAAGG [Eternabot solution 7] (Eterna round: R96, puzzle: Exclusion NG 1)”, the “apparent KD of MS2 coat protein” value (input ligand: FMN 200 uM) was 162 nM, the “apparent KD of MS2 coat protein” value under setting [1] is 17.7 nM and the “apparent KD of MS2 coat protein” value (input ligand: none) was 25.9 nM.

In the case of “ACACAGCAAGGAUAUACAUGAGGAUCACCCAUGUGGUGGCAGUUACGGUAGGACUAGUGUAGAAGGUGCAGUGG [EX3 #30] (Eterna round: R97, puzzle: Exclusion 3)”, the “apparent KD of MS2 coat protein” value is, setting by setting: (input ligand: FMN 200 uM) 487 nM; (input ligand: none) 668 nM.

With “UGGUCACAUGAGGAUCACCCAUGUCAGGAUAUCUACAUUGAAGCUUCGGCUUCAAUGUAGAGAAGGGAUAUAAU [E1/9-B1] (Eterna round: R97, puzzle: Exclusion 1)”, the “apparent KD of MS2 coat protein” value runs as follows: (input ligand: FMN 200 uM) 167 nM; (input ligand: none) 71.4 nM.

Consider “AGUACUAUCACGAAAGUGAUAGUACAAUAAGCUUGUGAAACAUGAGGAUCACCCAUGUCCUCAUAAGCUCGUCUUAU [JL turnoff v2 77] (Eterna round: R96, puzzle: Sensor v2, turn-off variant 2)”, for which the “apparent KD of MS2 coat protein” value runs as follows: (input ligand: FMN 200 uM) 16.1 nM; under setting [1], 463 nM; (input ligand: none) 18.7 nM.

Take “CAGUACUGAGGAUAUACAUGAGGAUCACCCAUGUGUUCCAGCUAGGGAACUAGCAAAAGUAGAAGGCAGUACUG [salish99_ex3_r3_075] (Eterna round: R96, puzzle: Exclusion 3)”: the “apparent KD of MS2 coat protein” value by setting is: (input ligand: FMN 200 uM) 455 nM; under setting [1], 20.4 nM; (input ligand: none) 25 nM.

For “ACCAAGUCAGGAUAUCCAGUUAGCCUUCGAGGCUGGGAAUAGGAGAAGGGACAUGAGGAUCACCCAUGUGGGCC [Eternabot (L2) Solution 78] (Eterna round: R97, puzzle: Exclusion 4)”, the “apparent KD of MS2 coat protein” value reads like this: (input ligand: FMN 200 uM) 215 nM; (input ligand: none) 54.4 nM.

Regarding “UUCCAACGAGGAUAUCGAUGGUGGAACAUGAGGAUCACCCAUGUAUGAGAUAUUGUAGUUCGAGAAGGCGUUCAGU [JR_E5_Sub056] (puzzle: Exclusion 5)”, the “apparent KD of MS2 coat protein” value under setting [2] was determined as 31.5 nM.

With “AAAAUACGCACAGGAUAUCAAUACAUGAGGAUCACCCAUGUAACAUGGACUGGUCAGCAGAAAAGUGAGAAGGGUGCUGACGAC [Beraon] (Eterna round: R96, puzzle: Exclusion NG 2)”, the “apparent KD of MS2 coat protein” value runs as follows: (input ligand: FMN 200 uM) 187 nM; under setting [1], 31.6 nM; (input ligand: none) 45.6 nM.

In the case of “AUUUCGGCAGGAUAUACAUGAGGAUCACCCAUGUAAAUUUUUCGUUUAACUUGAAUGUGUAGAAGGGCCAUUUA [Ex3 #61] (Eterna round: R97, puzzle: Exclusion 3)”, the “apparent KD of MS2 coat protein” value is, setting by setting: (input ligand: FMN 200 uM) 21.8 nM; (input ligand: none) 26.6 nM.

As to “AGAUCACAUGAGGAUCACCCAUGUCAGGAUAUGAUACUAUGUACUUCGGUACAUAGUAUCAGAAGGGACUUAAA [Ex1-3: 70] (puzzle: Exclusion 1)”, under setting [2], the “apparent KD of MS2 coat protein” value turned out to be 101 nM.

Turning to “UUUUUACAUGAGGAUCACCCAUGUCAGGAUAUCCUUAUAUUUUAUUAUUUUAUUUUUUGGAGAAGGGACUAUUA [My solution] (Eterna round: R96, puzzle: Exclusion 1)”, the “apparent KD of MS2 coat protein” value (input ligand: FMN 200 uM) was 362 nM, the “apparent KD of MS2 coat protein” value under setting [1] was 282 nM and the “apparent KD of MS2 coat protein” value (input ligand: none) came to 322 nM.

In the case of “CAGGAUAGAGGAUAUACAUAGAUACAGGUUCAUGUAAUCCUACAUGAGGAUCACCCAUGUAGAAGGCUAUCCUG [Fiskers Ex 2 - 19] (puzzle: Exclusion 2)”, the “apparent KD of MS2 coat protein” value under setting [2] came to 14.8 nM.

In the case of “GCAAGACAUGAGGAUCACCCAUGUGAGGAUAUUGCUCGACACCUGCGCGAAGAGUCGAUAAGAAGGUACAGGGU [Eternabot (L2) Solution 90] (Eterna round: R97, puzzle: Exclusion 1)”, the “apparent KD of MS2 coat protein” value came to 69.4 nM (input ligand: FMN 200 uM) and 52.6 nM (input ligand: none).

Take “GGCAUAAACGAGGAUAUCGUAUCGGAAACGAUACGAGAAGGUGUAACAUGAGGAUCACCCAUGUUCCUCAAGCC [Mat - Exclusion 6 - Eli Mod - D58] (puzzle: Exclusion 6)”: the “apparent KD of MS2 coat protein” value under setting [2] came to 38.1 nM.

For “AUAAUGUAAGGAUAUCAGUCGUACAGCUUCGGCUGUACGACUGAGAAGGUACAUGAGGAUCACCCAUGUGGUCA [E4/9-A1] (Eterna round: R97, puzzle: Exclusion 4)”, the “apparent KD of MS2 coat protein” value is, setting by setting: (input ligand: FMN 200 uM) 52.2 nM; (input ligand: none) 886 nM.

Consider “CACCCUUCAGGAUAUACAUGAGGAUCACCCAUGUGUUCCAGCUAGGAAACUAGCAAAUGUAGAAGGGAAGGGUG [Mat - Exclusion 3 - JL Mod - D5] (Eterna round: R97, puzzle: Exclusion 3)”, for which the “apparent KD of MS2 coat protein” value runs as follows: (input ligand: FMN 200 uM) 452 nM; (input ligand: none) 108 nM.

Regarding “GCCUAACAUGAGGAUCACCCAUGUCAGGAUAUCCAUAAACACCGGGAUGUACUGGACGGGAGAAGGGACAGGGC [Escelazari] (Eterna round: R97, puzzle: Exclusion 1)”, the “apparent KD of MS2 coat protein” value runs as follows: (input ligand: FMN 200 uM) 53.5 nM; (input ligand: none) 51.4 nM.

Regarding “GAUUAUGCGAGCUUUAGGGACAUGAGGAUCACCCAUGUUCGUCUUAUUAGUCUGAAUGCACUGACAUACCUAAAUCU [JMF 75] (puzzle: Sensor v3, turn-off variant 1)”, the “apparent KD of MS2 coat protein” value by setting is: under setting [3], 16.2 nM; under setting [2], 17.7 nM; under setting [4], 16.1 nM.

For “AAGUACCGGUGAGGAUAUUUUUAAUAGAGCUUUAUGAUAUACAUGAGGAUCACCCAUGUUACGUUAAAGAAGGCAUCGGAUUAA [Mat - Exclusion NG 2 - Mod of JL - D97] (Eterna round: R96, puzzle: Exclusion NG 2)”, the “apparent KD of MS2 coat protein” value (input ligand: FMN 200 uM) was 16.1 nM, the “apparent KD of MS2 coat protein” value under setting [1] turned out to be 13.7 nM and the “apparent KD of MS2 coat protein” value (input ligand: none) turned out to be 19.3 nM.

For the sequence “AAUUCACAUGAGGAUCACCCAUGUCAGGAUAUGGUGACGCGGGUUUCGGUGCGUGUUGCCAGAAGGGACAGCUA (puzzle: Exclusion 1)”, under setting [2], the “apparent KD of MS2 coat protein” value was 81.3 nM.

As for “CCUCCACAUGAGGAUCACCCAUGUCAGGAUAUCGUGUGUUUUUUUUCGGCCGCGCGUGCGAGAAGGGACGUCUU (puzzle: Exclusion 1)”, the “apparent KD of MS2 coat protein” value under setting [2] was determined as 19.1 nM.

Take “CACUGGACAGGAUAUGUUCUUGAGCACUUGAGGAUCACCCAAGUCAUCAAGAACUCAGGCACAGAAGGGUUUAUGU [salish99_ex5_r4_014] (Eterna round: R97, puzzle: Exclusion 5)”: the “apparent KD of MS2 coat protein” value reads like this: (input ligand: FMN 200 uM) 44.5 nM; (input ligand: none) 15.8 nM.

Take “GCGGGAUAGCAAGGAUAUCCCGAGUCGCAAGGAAACAUCCACAUGAGGAUCACCCAUGUGGCUCUGGAGAAGGUGCGACGCAAA [Onveceanti] (Eterna round: R96, puzzle: Exclusion NG 2)”: the “apparent KD of MS2 coat protein” value is 10.3 nM (input ligand: FMN 200 uM), 9.8 nM under setting [1] and 13.4 nM (input ligand: none).

In the case of “GAGUGCUGAGGAUAUACAUGAGGAUCACCCAUGUGCUUCAGCUAGGAGACUAGCAUUGGUAGAAGGCAGUACUC [LRO-Excl3-01] (puzzle: Exclusion 3)”, the “apparent KD of MS2 coat protein” value under setting [2] stood at 11.1 nM.

For the sequence “AACCGUGCGGAGGAUAUUGAUAUCCCAGUCUAUCAAGAAGGCUGCACAUGAGGAUCACCCAUGUGAUCCGUGCU [Riri] (Eterna round: R96, puzzle: Exclusion 6)”, the “apparent KD of MS2 coat protein” value by setting is: (input ligand: FMN 200 uM) 201 nM; under setting [1], 20.7 nM; (input ligand: none) 25.1 nM.

“AAACGGAUAGGAUAUACUUGAGGAUCACCCAAGUGAUCAGUCCCGGGAAUUCCCGCAAGUAGAAGGAUCAAAAG [Arisrevexe] (Eterna round: R97, puzzle: Exclusion 3)”: the “apparent KD of MS2 coat protein” value is, setting by setting: (input ligand: FMN 200 uM) 1120 nM; (input ligand: none) 162 nM.

For “GAAAAGUGAGGAUAUGGUAAAAGAAAAAGAAAAAGAAAACUCCAGAAGGCACAUGAGGAUCACCCAUGUGAAAG [salish99_ex4_r3_006] (puzzle: Exclusion 4)”, the “apparent KD of MS2 coat protein” value was determined as 15.7 nM under setting [3], 16.2 nM under setting [2] and 15.8 nM under setting [4].

In the case of “AUAAGUGAUAAGGAUAUUACUAGCUGCGGCUAGUGAGAAGGUAUCACAUGAGGAUCACCCAUGUGUUCCAAUAA [Ex6/7-B3] (Eterna round: R97, puzzle: Exclusion 6)”, the “apparent KD of MS2 coat protein” value is, setting by setting: (input ligand: FMN 200 uM) 254 nM; (input ligand: none) 134 nM.

Take “UGGUCACAUGAGGAUCACCCAUGUCAGGAUAUCUACAUUGAAGCCUCGGCUUCAAUGUAGAGAAGGGACAUAAU [E1/6-B2] (Eterna round: R97, puzzle: Exclusion 1)”: the “apparent KD of MS2 coat protein” value worked out at 121 nM (input ligand: FMN 200 uM) and 265 nM (input ligand: none).

With “AAUACAAGCAAGAUCCUAAACAUGAGGAUCACCCAUGUGCUCGUCUUAUAAAGUACUAUCACGAAAGUGAUAGUACA [Sensor 3, v1 - 63] (puzzle: Sensor v3, turn-off variant 1)”, the “apparent KD of MS2 coat protein” value is, setting by setting: under setting [3], 213 nM; under setting [2], 438 nM; under setting [4], 234 nM.

As to “AAGAAACAUGAGGAUCACCCAUGUGAGGAUAUGAGCAAGAAAAGAAAAGAAAGAAGAAUCAGAAGGCACAAAGG [salish99-ex1_r3_050] (Eterna round: R96, puzzle: Exclusion 1)”, the “apparent KD of MS2 coat protein” value reads like this: (input ligand: FMN 200 uM) 68.5 nM; under setting [1], 31.7 nM; (input ligand: none) 37.4 nM.

For “GUUAGUAUCUAGGAUAUCUAGUACAUAGUAUCUAGAGAAGGAGAUACAUGAGGAUCACCCAUGUUCUGUGUUCU [Exclusion 6 - 1:c] (puzzle: Exclusion 6)”, under setting [2], the “apparent KD of MS2 coat protein” value was determined as 21.9 nM.

On to “AAGUAGUGUGUGAGGAUAUUGGUGGAAUGACAUAUUAAGAAGGCACAUGAGGAUCACCCAUGUGGGUUGACACG [Brourd's EX4 #19] (Eterna round: R97, puzzle: Brourd's mod of Exclusion 4)”, for which the “apparent KD of MS2 coat protein” value reads like this: (input ligand: FMN 200 uM) 269 nM; (input ligand: none) 98.4 nM.
